Measured values taken from the supplement of paper PMC9170038.

System: MS2 coat protein
Experiment: apparent KD of MS2 coat protein; higher = weaker reporter binding
Conditions: Eterna round: R107
Summary of the method: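 Designed RNA switches were transcribed on-chip from Illumina sequencing clusters and titrated with SNAP-549-labelled MS2 coat protein in twofold steps from 0.7 or 1.5 nM up to 3 µM. Each step lasted 0.8–1.5 h at first and 10–20 min by the end, in 100 mM Tris-HCl pH 7.5, 80 mM KCl and 4 mM MgCl2, without or with constant ligand. Apparent KD is the median, for each design, of fits to normalised cluster binding curves.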

[1] = input ligand: theophylline 20 uM
[2] = input ligand: theophylline 2 mM
[3] = input ligand: tryptophan 2.4 mM

Sequence	apparent KD of MS2 coat protein (input ligand: arginine 13.2 mM) [nM]	apparent KD of MS2 coat protein (input ligand: none) [nM]	apparent KD of MS2 coat protein [1] [nM]	apparent KD of MS2 coat protein [2] [nM]	apparent KD of MS2 coat protein [3] [nM]
GGUUGAAACUGAAGGAGCGAGAUGACAACAUUGGGUCUAACAUGAGGAUCACCCAUGUAAUCUCAGGUAGGUCGCAGUGACCAAA [Exclusion Arginine B GF 14]	38.1	50.2	41.5	46.7	43.1
GCUAGGUCUACGGCCGCCACUAGACGUGGGUAAGACAUGAGGAUCACCCAUGUACUACAGGCGGAUAGGACCGGGUAGACCUAGC [SSTB NP+V+V2 #13 +-Same Structure]	69.3		159	101	
AAAAUAUACGGAAGGAGCGUGUAAGAUUAAGAACAUGAGGAUCACCCAUGUUUUAAGGGAACACAGGUAGGUCGCCGUAUAUAAA [11.N]	12.9	11.9	11.6	10.3	11.8
AAUAACAUGAGGAUCACCCAUGUAAAAGAUACCAGAUGCAUGAUGAUCCCUUGGCAGCUUAACGCUGAUUGAUUACAAUCAGCGA	36.5		128		26.4
AAUUUAAACGGAAGGAGCGUCACUUAAUAUCAACAUGAGGAUCACCCAUGUAAGGGUUGUAGACAGGUAGGUCGCCGUCAUUUGA [JR_AAArginiB_Sub023]	36.3	39.2	50.6	41.9	35.4
UGAUCCUGCAGGGAUACCAGCGCCGCUUGAUAACUGUGCACAUGAGGAUCACCCAUGUAGCGCCCUUGGCAGCCCAGCUAGAGGG [Same State Theophylline B GF23]	21.8		33.7		28.3
GAUAUGAUAAGAAGGAGCGUCGAAAAUGGGUAAACAUGAGGAUCACCCAUGUAAAGGGAACGACAGGUAGGUCGCUUAUUAUAUC [AstromonsSSArgB#19]	146	160	190	251	134
GCAUUAUUAUUAGAUACCAGUGUCGCAGGCGACAUGAGGAUCACCCAUGUAAAGUUACUCCACCCUUGGCAGCUAGUUCGACUAC [theeternabot_sameState_MS2_Theo_B_21]	56		124		101
GGGAGAUAGGCGGCCGCCACUGAUUUUCAUAUAUAUAUAACAUGAGGAUCACCCAUGUAGAUAUACAGGACCGGGCCUAUUUUUU [aaaE]	19.1		22.5	19.7	
CACAUGAGGAUCACCCAUGUCUGAACUGAAGGAGCGCUAAACAAGGCAGGUAGGUCGCGGAAUUUUGUGUGCAUAUGCACACGGG [9.R]	16.8	17.2	32.7	21.1	17.6
GGAGUCGGCACGGCCGCCACUGCGGUGGUGUGACAUGAGGAUCACCCAUGUUGUCAUGCGGCCCUUAGGACCGGGUGGCGGUUCC [#1 Exclusion - Tryptophan B Attempt #22 (HarryS)]	28.4	58.7	76.1	82.6	
GGGUACAUCGCGGCCGCCACUCAUGUAAAUGCAUGAGGAACACCCAUGCCGAUGGAGACAUCGGAGAGGACCGGGUGAUGUACCG	66	110	157	148	93.7
GAUGAACUAUAUGAUACCAGACAACAUGAGGAUCACCCAUGUGUAUGUCGUCCUCUGCCUGUCCCUUGGCAGCGUAUAGUUUAUC [XTheo B #17]	36.8		70.1		16.1
UAAAGUAGGUCCAAUAAAACUACAUGUGAAGGAGCGCGCGAAAGCGCAGGUAGGUCGCACAUGAGGAUCACCCAUGUCCUACAAU [MAT - Exclusion Arginine A - Mod of Eli - D17]	42.6	51.5	69.1	68.2	43
GGAGCUACGUCGGCCGCCACUAGCGGUAAUUACGUGUACAUGAGGAUCACCCAUGUAAUAUGGACUAGGACCGGGACGUAGCUCC [Salmon]	10.6	13.3	21.8	13.7	12.2
ACAUGAGGAUCACCCAUGUGGCGUCUUGAUACCAGACCCGAAGUAGUCCCUUGGCAGCAACUACGUGAGGGUCGCCCAUGUGUAG [k'kmullin]	23.5	30.4	40.8	40.9	25.5
GAGCUGAUGUAGGGUGGAUAUCCUUGAGAUACCAGUACAGAAAUGUACCCUUGGCAGCUCUUCCUUACAUGAGGAUCACCCAUGU [Ex Theophylline A 25]	18.9		23.5		20.4
